Measured values: patent US20120219942, “Methods Employing McrA to Detect 5-Methyl Cytosine” (Brookhaven Science Associates, LLC, published 2012)

Legend:
[1] = target: T1, McrA (rMcrA-S, C-terminal StrepII) (Escherichia coli, UniProt P24200 P24200:1-277); test: EMSA; NEBuffer 3, 100 mM NaCl, 10 mM MgCl2, RT; details: tags: C-terminal StrepII SAWSHPQFEK
T1 sequence: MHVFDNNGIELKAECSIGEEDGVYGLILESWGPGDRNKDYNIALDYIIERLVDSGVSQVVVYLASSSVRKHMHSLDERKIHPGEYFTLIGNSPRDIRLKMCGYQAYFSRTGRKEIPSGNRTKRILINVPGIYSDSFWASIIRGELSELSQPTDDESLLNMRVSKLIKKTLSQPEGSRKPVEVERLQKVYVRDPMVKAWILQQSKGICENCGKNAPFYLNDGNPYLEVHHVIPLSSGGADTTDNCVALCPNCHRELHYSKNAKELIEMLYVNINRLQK
Procedure: (§1) EMSA binding assays. Reactions (10 μl) typically contained a mixture of 10-25 pMol of various test DNAs, and 250 ng sonicated E. coli. ER2925DNA as a non-methylated, non-specific competitor in 50 mM Tris-HCl, 100 mM NaCl, 1 mM dithiothreitol, 10 mM MgCl₂ (NEBuffer #3), supplemented, with 100 μg/ml BSA. We started the reactions adding 25-175 pMol McrA-S; after 45 min at RT, the entire sample was loaded on 10% acrylamide Tris-Acetate/EDTA gel (1×TAE: 40 mM Tris-Acetate, 1 mM disodium EDTA) which was electrophoresed at RT. Thereafter, the gels were stained with ethidium bromide (0.5 μg/ml) at RT and visualized with UV light. Then, we stained the gels with Coomassie Blue to detect rMcrA-S.

[2] = target: T1, McrA (rMcrA-S, C-terminal StrepII); test: EMSA; hemimethylated; details: tags: C-terminal StrepII SAWSHPQFEK
Procedure: as §1
(§2) We next tested the ability of rMcrA-S to gel-shift ds-cassettes wherein an A, C, T, U, or I residue is placed opposite the m⁵C.

[3] = target: T1, McrA (rMcrA-S, C-terminal StrepII); test: EMSA; NEBuffer 3, RT; details: tags: C-terminal StrepII SAWSHPQFEK
Procedure: as §1

[4] = target: T1, McrA (rMcrA-S, C-terminal StrepII); test: EMSA; Ym5CGR somewhat higher affinity; details: tags: C-terminal StrepII SAWSHPQFEK
Procedure: as §1

[5] = target: T1, McrA (rMcrA-S, C-terminal StrepII); test: EMSA; C opposite m5C; details: tags: C-terminal StrepII SAWSHPQFEK; mismatch C opposite m5C
Procedure: as §1, §2

[6] = target: T1, McrA (rMcrA-S, C-terminal StrepII); test: EMSA; U opposite m5C; details: tags: C-terminal StrepII SAWSHPQFEK; mismatch U opposite m5C
Procedure: as §1, §2

[7] = target: T1, McrA (rMcrA-S, C-terminal StrepII); test: EMSA; high affinity; NEBuffer 3, RT; Mg independent; details: tags: C-terminal StrepII SAWSHPQFEK
Procedure: as §1

[8] = target: T1, McrA (rMcrA-S, C-terminal StrepII); test: EMSA; T opposite m5C; details: tags: C-terminal StrepII SAWSHPQFEK; mismatch T opposite m5C
Procedure: as §1, §2

[9] = target: T1, McrA (rMcrA-S, C-terminal StrepII); test: EMSA; A opposite m5C; details: tags: C-terminal StrepII SAWSHPQFEK; mismatch A opposite m5C
Procedure: as §1, §2

B1: three m5CpG cassette (dsDNA)
DNA 1: GCCTTCAGCGCCGGCGGATCCAGT
DNA 2: ACTGGATCCGCCGGCGCTGAAGGC
modifications: 5mC at positions 9, 12, 15 of both strands
binding result [1]: binds

B2: hemimethylated Cm5CGG cassette (m5C/G) (dsDNA)
DNA 1: GCCTTCAGCGCCGGCGGATCCAGT
DNA 2: ACTGGATCCGCCGGCGCTGAAGGC
modifications: 5mC at position 12 of top strand only
binding result [2]: binds

B3: m5CGT cassette (dsDNA)
DNA 1: CCCTCTGACGTAGGAGGCTCCTGC
DNA 2: GCAGGAGCCTCCTACGTCAGAGGG
modifications: 5mC at CpG (M.SssI), top 9, bottom 15
binding result [3]: no binding

B4: m5CGC cassette (dsDNA)
DNA 1: CCCTCTGACGCAGGAGGCTCCTGC
DNA 2: GCAGGAGCCTCCTGCGTCAGAGGG
modifications: 5mC at CpG (M.SssI), top 9, bottom 15
binding result [3]: no binding

B5: Cm5CGG cassette (M.SssI) (dsDNA)
DNA 1: CCCTCTGCCGGAGGAGGATCCTGC
DNA 2: GCAGGATCCTCCTCCGGCAGAGGG
modifications: 5mC at CpG (M.SssI), top 9, bottom 15
binding result [4]: binds

B6: m5C/C mismatch cassette (dsDNA)
DNA 1: GCCTTCAGCGCCGGCGGATCCAGT
DNA 2: ACTGGATCCGCCCGCGCTGAAGGC
modifications: 5mC at position 12 of top strand only
binding result [5]: no binding

B7: m5C/U mismatch cassette (dsDNA)
DNA 1: GCCTTCAGCGCCGGCGGATCCAGT
DNA 2: ACTGGATCCGCCUGCGCTGAAGGC
modifications: 5mC at position 12 of top strand only; U in bottom strand opposite m5C
binding result [6]: no binding

B8: Cm5CGG cassette (single methylated HpaII site) (dsDNA)
DNA 1: GCCTTCAGCGCCGGCGGATCCAGT
DNA 2: ACTGGATCCGCCGGCGCTGAAGGC
modifications: 5mC at position 12 of both strands
binding result [7]: binds

B9: Gm5CGA cassette (dsDNA)
DNA 1: CCCTCTGGCGAAGGAGGCTCCTGC
DNA 2: GCAGGAGCCTCCTTCGCCAGAGGG
modifications: 5mC at CpG (M.SssI), top 9, bottom 15
binding result [3]: binds

B10: Gm5CGG cassette (dsDNA)
DNA 1: CCCTCTGGCGGAGGAGGCTCCTGC
DNA 2: GCAGGAGCCTCCTCCGCCAGAGGG
modifications: 5mC at CpG (M.SssI), top 9, bottom 15
binding result [3]: binds

B11: m5C/T mismatch cassette (dsDNA)
DNA 1: GCCTTCAGCGCCGGCGGATCCAGT
DNA 2: ACTGGATCCGCCTGCGCTGAAGGC
modifications: 5mC at position 12 of top strand only
binding result [8]: no binding

B12: Tm5CGG cassette (dsDNA)
DNA 1: CCCTCTGTCGGAGGAGGCTCCTGC
DNA 2: GCAGGAGCCTCCTCCGACAGAGGG
modifications: 5mC at CpG (M.SssI), top 9, bottom 15
binding result [4]: binds

B13: Am5CGG cassette (dsDNA)
DNA 1: CCCTCTGACGGAGGAGGCTCCTGC
DNA 2: GCAGGAGCCTCCTCCGTCAGAGGG
modifications: 5mC at CpG (M.SssI), top 9, bottom 15
binding result [3]: binds

B14: m5C/A mismatch cassette (dsDNA)
DNA 1: GCCTTCAGCGCCGGCGGATCCAGT
DNA 2: ACTGGATCCGCCAGCGCTGAAGGC
modifications: 5mC at position 12 of top strand only
binding result [9]: no binding

B15: Tm5CGA cassette (dsDNA)
DNA 1: CCCTCTGTCGAAGGAGGCTCCTGC
DNA 2: GCAGGAGCCTCCTTCGACAGAGGG
modifications: 5mC at CpG (M.SssI), top 9, bottom 15
binding result [4]: binds

B16: Cm5CGA cassette (dsDNA)
DNA 1: CCCTCTGCCGAAGGAGGCTCCTGC
DNA 2: GCAGGAGCCTCCTTCGGCAGAGGG
modifications: 5mC at CpG (M.SssI), top 9, bottom 15
binding result [4]: binds

B17: Am5CGA cassette (dsDNA)
DNA 1: CCCTCTGACGAAGGAGGCTCCTGC
DNA 2: GCAGGAGCCTCCTTCGTCAGAGGG
modifications: 5mC at CpG (M.SssI), top 9, bottom 15
binding result [3]: binds
